From patent publication US20240174760A1 (ZHEJIANG NANOMAB TECHNOLOGY CENTER, published 2024)
Like-named read-outs stand apart in the source and are kept apart here.

T1: human BCMA his tag protein (Acrobiosystems, BCA-H522y) (human, UniProt Q02223 1-54)
T1 construct: Bought protein; also called BCMA/TNFR-His; human recombinant BCMA his tag; not shown: his tag
T1 sequence (looked up): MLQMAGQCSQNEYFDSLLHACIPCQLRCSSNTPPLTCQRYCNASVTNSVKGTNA

T2: human BCMA full-length protein on cells (human, UniProt Q02223 1-184)
T2 construct: whole, on cells; also called CHO-K1/BCMA; BCMA on RPMI8226, Jeko-1, Daudi cells
T2 sequence (looked up): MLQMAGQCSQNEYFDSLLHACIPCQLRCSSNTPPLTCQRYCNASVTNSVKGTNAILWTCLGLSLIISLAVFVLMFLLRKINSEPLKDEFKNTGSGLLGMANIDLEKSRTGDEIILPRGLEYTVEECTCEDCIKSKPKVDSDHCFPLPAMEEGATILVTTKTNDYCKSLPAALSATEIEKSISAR

B1: BMK1 (scFv)
scFv: DIVLTQSPASLAVSLGKRATINCRASESVSVIGAHLIHWYQQKPGQPPKLLIYLASNLETGVPARFSGSGSGTDFTLTISSLQAEDAAIYYCLQSRIFPRTFGGGTKLEIKGSTSGSGKPGSGEGSTKGQVQLVQSGSELKKPGASVKVSCKASGYTFTDYSINWVRQAPGQGLEWMGWINTETREPAYAYDFRGRFVFSLDTSVSTAYLQISSLKAEDTAVYYCARDYSYAMDYWGQGTLVTVSS
notes: also called positive control antibody; BMK control antibody

Key:
[1] = target: human BCMA his tag protein (Acrobiosystems, BCA-H522y) (human) (UniProt Q02223); assay: comp. ELISA, competitor biotin-BAFF (ligand signal), Ab 78 ug/mL
[2] = target: human BCMA his tag protein (Acrobiosystems, BCA-H522y) (human) (UniProt Q02223); assay: comp. ELISA, competitor biotin-APRIL (ligand signal), Ab 78 ug/mL
[3] = target: human BCMA his tag protein (Acrobiosystems, BCA-H522y) (human) (UniProt Q02223); assay: comp. ELISA, competitor biotin-BAFF (ligand signal), Ab 19.5 ug/mL
[4] = target: human BCMA his tag protein (Acrobiosystems, BCA-H522y) (human) (UniProt Q02223); assay: comp. ELISA, competitor biotin-APRIL (ligand signal), Ab 19.5 ug/mL
[5] = target: human BCMA his tag protein (Acrobiosystems, BCA-H522y) (human) (UniProt Q02223); assay: comp. ELISA, competitor biotin-BAFF (ligand signal), Ab 1.218 ug/mL
[6] = target: human BCMA his tag protein (Acrobiosystems, BCA-H522y) (human) (UniProt Q02223); assay: comp. ELISA, competitor biotin-BAFF (ligand signal), Ab 4.875 ug/mL
[7] = target: human BCMA his tag protein (Acrobiosystems, BCA-H522y) (human) (UniProt Q02223); assay: comp. ELISA, competitor biotin-APRIL (ligand signal), Ab 1.218 ug/mL
[8] = target: human BCMA his tag protein (Acrobiosystems, BCA-H522y) (human) (UniProt Q02223); assay: comp. ELISA, competitor biotin-APRIL (ligand signal), Ab 4.875 ug/mL
[9] = target: T1, human BCMA his tag protein …; assay: comp. ELISA, competitor biotin-BAFF (ligand signal), Ab 78 ug/mL
Description: (§1) Plates (Corning) were coated with 2 μg/mL human BCMA his tag protein (Acrobiosystems, BCA-H522y) overnight at 4° C. After blocking and washing, 50 μL diluted antibodies (78 μg/mL, 19.5 μg/mL, 4.875 μg/mL, 1.218 μg/mL) and 50 μL biotin-labeled 1 μg/mL APRIL (Acrobiosystems, APL-H82F5) or 1.25 μg/mL BAFF (Acrobiosystems, BAF-H82F3) ligand were added to each well, and incubated at 37° C. for 1 hour. After washing 3 times, 100 μL HRP-labeled streptavidin (Biolegend, 405210) diluted 1:2000 was added to each well, and incubated at 37° C. for 30 minutes. After washing, 100 μL TMB substrate (Abeam, ab171524) was added to each well and developed for 5 minutes and the reaction was stopped by 3M HCl. The absorbance value at […] was read using a microplate reader (Tecan, SPARK).

[10] = target: T1, human BCMA his tag protein …; assay: comp. ELISA, competitor biotin-APRIL (ligand signal), Ab 78 ug/mL
Description: as §1

[11] = target: T1, human BCMA his tag protein …; assay: comp. ELISA, competitor biotin-BAFF (ligand signal), Ab 19.5 ug/mL
Description: as §1

[12] = target: T2, human BCMA full-length protein on cells; assay: flow cytometry on RPMI8226 cells, anti-human IgG PE [A&B) A]
Description: The EC50 of the antibody was calculated by fitting the curve.

[13] = target: T1, human BCMA his tag protein …; assay: comp. ELISA, competitor biotin-APRIL (ligand signal), Ab 19.5 ug/mL
Description: as §1

[14] = target: T1, human BCMA his tag protein …; assay: comp. ELISA, competitor biotin-BAFF (ligand signal), Ab 1.218 ug/mL
Description: as §1

[15] = target: T1, human BCMA his tag protein …; assay: comp. ELISA, competitor biotin-BAFF (ligand signal), Ab 4.875 ug/mL
Description: as §1

[16] = target: T1, human BCMA his tag protein …; assay: comp. ELISA, competitor biotin-APRIL (ligand signal), Ab 1.218 ug/mL
Description: as §1

[17] = target: T1, human BCMA his tag protein …; assay: comp. ELISA, competitor biotin-APRIL (ligand signal), Ab 4.875 ug/mL
Description: as §1

[18] = target: T2, human BCMA full-length protein on cells; assay: flow cytometry competition on CHO-K1/BCMA cells; antibody titrated against biotin-APRIL, PE streptavidin readout
Description: (§2) In a 96-well non-adsorption deep-well plate, the purified antibody and the control antibody were diluted to 1000 nM with DPBS, and then serially diluted to 8 concentration with 3-fold dilution. Biotin-APRIL was diluted to 4 μg/mL with DPBS. 50 μL the antibody diluted in the previous step or DPBS (Blank, Blank-PE tube), respectively, was added to the wells of a non-adsorption 96-well plate having 5×10⁵ CHO-K1/BCMA cells that overexpressed human BCMA, and then the 50 μL diluted APRIL in the previous step was added and mixed, incubated at 4° C. for 40 min. After washing once with pre-cooled DPBS, 150 μL PE Streptavidin (Biolegend, 405210) diluted with DPBS at 1:500 was added to each well, the cells were resuspended, and incubated at 4° C. for 30 min. After 30 minutes, centrifuged at 220 g for 5 minutes at 4° C., the supernatant was discarded, 200 μL pre-cooled DPBS washing solution was added to each well, the cells were resuspended by gently pipetting with a multichannel pipette, centrifuged at 220 g for 5 minutes, the supernatant was discarded, and the washing step was repeated one time. After 2 times of washing, the cells were resuspended in DPBS and detected by a flow analyzer (Beckman, Cytoflex). […]

[19] = target: T2, human BCMA full-length protein on cells; assay: as above; remark: listed apart in the source
Description: as §2

OD450 [1] [OD450] | OD450 [2] [OD450] | OD450 [3] [OD450] | OD450 [4] [OD450] | OD450 [5] [OD450] | OD450 [6] [OD450] | OD450 [7] [OD450] | OD450 [8] [OD450] | OD450 [9] [OD450] | OD450 [10] [OD450] | OD450 [11] [OD450] | EC50 [12] [µM] | OD450 [13] [OD450] | OD450 [14] [OD450] | OD450 [15] [OD450] | OD450 [16] [OD450] | OD450 [17] [OD450] | IC50 [18] [µM] | IC50 [19] [µM] | Molecule
3.24 | 3.04 | 3.28 | 2.99 | 3.38 | 3.29 | 2.89 | 3.07 |  |  |  |  |  |  |  |  |  |  |  | Isotype-2 (antibody)
 |  |  |  |  |  |  |  | 0.03 | 0.05 | 0.31 | 0.0057 | 0.31 | 3.39 | 3.32 | 3.1 | 2.9 | 0.0896 | 0.0818 | B1
